Assay results from patent US11180767B2, “Protease deficient filamentous fungal cells and methods of use thereof” (GLYKOS FINLAND OY, priority 2012, dated 2021).

Experiments:
[1] = tested on: SIP purified proteases (PEP2, PEP3, PEP4, PEP5, GAP1, SLP2); assay: Protease activity of SIP purified fractions against casein with inhibitors (EnzChek); type: biochemical, Trichoderma reesei; conditions: pH 5.5
Experimental: Protease activity was then tested against casein both in the presence and absence of protease inhibitors. Protease activity against casein was tested using the EnzChek protease assay kit (Molecular probes #E6638, green fluorescent casein substrate). The working stock solution was prepared by diluting the stock to 10 μg ml in 50 mM sodium citrate, pH 5.5. The purified protease fractions (10 μl) were diluted with […] of sodium citrate, pH 5.5. 100 μl of the diluted substrate was combined with the diluted protease fractions in a 96 well sample plate. The plate was then covered and kept at 37° C. for one to three hours. Fluorescence readings were taken at one, two, and three hours with a Varioskan fluorescent plate reader (Thermo Scientific) using 485 nm excitation and 530 nm emission.
The SIP inhibitor peptide, pepstatin A, LIP peptide, SBTI, and chymostatin were used as inhibitors. […] SIP, LIP, and pepstatin A were used at a concentration of 60 μM, and SBTI was used at a concentration of 200 μg/ml.

green fluorescent casein = assay: Total protease activity of culture supernatants against fluorescent casein; type: biochemical; conditions: 1 L fermentor, pH 5.5, casein FL
Experimental: The total protease activity of culture supernatant from the quadruple deletion strain M307 was then measured and compared with culture supernatants from the triple deletion strain M277 and the wild type strain M124. Each strain was grown in 2 liter shake flasks with 300 ml TrMM containing 40 g/l lactose, 20 g/l spent grain extract, and 100 mM PIPPS at pH 5.5. Day 7 supernatant samples were taken for total protease assay. The total protein concentrations of the supernatants were measured using the BCA assay with bovine immunoglobulin as the standard. The supernatants were diluted serially 1:2 in sodium citrate buffer at pH 5.5. […] The fluorescence was measured after 1 hour at 485 nm excitation and 530 nm emission.
The full length antibody yield calculated was 20% higher in the gap1 deletion strain from the day 6 sample. […] From the fermentor supernatants, the total protease activity against casein was measured. […]
The protein concentrations were determined from all supernatant samples from day 2-7. […] The fluorescence from the wells was measured after 2, 3, and 4 hours. The readings were done on the Varioskan fluorescent plate reader using 485 nm excitation and 530 nm emission.
The protease activity from the cultivations listed in Table 22.4 was measured in order to determine how the total protease activities were affected by the RNAi. […]

[2] = tested on: tryptic and chymotryptic proteases; assay: In vitro inhibitor treatment: rituximab heavy chain degradation in M44 supernatant; type: biochemical, Trichoderma reesei; conditions: 100 μM chymostatin or 1 mg/ml SBTI; M44 supernatant 6 mg/ml, pH 5.5
Experimental: Based on the knowledge that the heavy chain is cleaved by tryptic and chymotryptic proteases, inhibitors of these two enzyme classes were tested against antibody degradation both in vitro and in culture experiments utilizing an antibody producing T. reesei strain. The inhibitors soybean trypsin inhibitor (SBTI) and chymostatin were tested, as they have been previously shown in in vitro experiments to stabilize antibody heavy chains.
Chymostatin and SBTI were analyzed in vitro with culture supernatant. Supernatant from a fed batch fermentor culture was diluted to 6 mg/ml with sodium citrate buffer pH 5.5 (pH 5.5; 28° C.; 20 g/L spent grain extract, 60 g/L lactose). […] The strain was grown in Trichoderma minimal medium supplemented with 20 g/l spent grain extract and 60 g/l lactose at pH 5.5 and 28° C.
To this diluted supernatant 0.05 μg μl of rituximab, 100 μM chymostatin, 1 mg/ml SBTI, or a combination of both inhibitors was added in a total volume of 50 μl and sampled at 0, 1, and 19 hours to assess the early and late degradation of the rituximab antibody heavy chain. The resulting heavy chain products were analyzed by immunoblot using and anti-heavy chain AP conjugated antibody (Sigma #A3188) diluted 1:30,000 in TBST (FIG. 35). […] Additional fragments were generated after 19 hours, the two major products remained.

B1: SBTI: soybean trypsin inhibitor, trypsin and subtilisin inhibitor (protein)
chain: DFVLDNEGNPLENGGTYYILSDITAFGGIRAAPTGNERCPLTVVQSRNELDKGIGTIISSPYRIRFIAEGHPLSLKFDSFAVIMLCVGIPTEWSVVEDLPEGPAVKIGENKDAMDGWFRLERVSDDEFNNYKLVFCPQQAEDDKCGDIGISIDHDDGTRRLVVSKNKPLVVQFQKLDKESL
[1]; SIP, LIP, pepstatin A 60 μM, SBTI 200 μg/ml
  proteases inhibited: able to inhibit SLP2 and PEP4
[1]; FIG. 11
  inhibition of SIP purified protease activity against casein: able to inhibit the SLP2 protease
Green fluorescent casein
  protease activity of M507 culture supplemented with inhibitor: protease activity also dropped from day 6 until day 8
[2]
  rituximab heavy chain fragment formation: inhibited the 38 kD fragment from forming
